Data on 3 molecules can be found in PMC9463662, “Selection of DNA aptamer and its application as an electrical biosensor for Zika virus detection in human serum”.

In data set [1] the target is T1, Zika virus envelope protein (Zika virus, UniProt A0A221S5X1 1-403). Put plainly: bead-based fluorescence binding assay; protein on streptavidin beads. The settings on record: protein: commercial.
In data set [2] the target is albumin (bovine serum albumin in sensor test) (UniProt P02769 25-607). Kind of data set: capacitance biosensor; bovine serum albumin.
Sequence of albumin (bovine serum albumin in sensor test) (P02769 25-607): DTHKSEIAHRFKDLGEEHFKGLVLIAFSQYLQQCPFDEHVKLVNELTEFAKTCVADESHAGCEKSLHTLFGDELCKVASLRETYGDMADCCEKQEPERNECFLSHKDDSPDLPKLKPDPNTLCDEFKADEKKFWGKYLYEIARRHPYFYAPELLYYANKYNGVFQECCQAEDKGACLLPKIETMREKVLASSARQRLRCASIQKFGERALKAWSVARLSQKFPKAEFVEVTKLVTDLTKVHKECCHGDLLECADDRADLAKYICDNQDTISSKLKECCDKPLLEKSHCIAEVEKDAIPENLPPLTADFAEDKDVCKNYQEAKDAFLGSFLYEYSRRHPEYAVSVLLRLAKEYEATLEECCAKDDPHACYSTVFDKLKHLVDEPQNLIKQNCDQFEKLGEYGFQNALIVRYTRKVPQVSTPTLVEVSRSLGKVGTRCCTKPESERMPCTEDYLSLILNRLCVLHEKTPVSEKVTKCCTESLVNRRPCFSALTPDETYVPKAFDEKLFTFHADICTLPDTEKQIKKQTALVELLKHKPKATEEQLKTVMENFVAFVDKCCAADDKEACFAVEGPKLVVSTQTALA
Data set [3] has as its target T1, Zika virus envelope protein. Put plainly: capacitance biosensor; aptamer/MXene on Au micro-gap electrode; DIW or 10% human serum; LOD 38.14 pM in serum. The settings on record: protein: commercial.

B1: Zika-07 (Zika-7) aptamer, 5'-FAM (ssDNA)
DNA: TGACACCGTACCTGCTCTAGTGCGCACTGAACGATCCTGCGTCAAGTTCAAGGTTGTGAAGCACGCCAAGGGACTAT
Consider B1, for which the affinity in data set [1], expressed as Kd, was 107 ± 1.9 nM.

B2: thiol-modified Zika-07 aptamer (ssDNA)
DNA: TGACACCGTACCTGCTCTAGTGCGCACTGAACGATCCTGCGTCAAGTTCAAGGTTGTGAAGCACGCCAAGGGACTAT
modifications: 5'-SH
In the case of B2, the binding result in data set [2] is listed as “no binding”; in data set [3], “binds”.

B3: Zika-25 aptamer, 5'-FAM (ssDNA)
DNA: TGACACCGTACCTGCTCTAAGCACGCCAAGGGACTATAGGTTGACACCGTACCTGCTCTAAGCACGCCAAGGGACTAT
As for B3, binding in data set [1] was put at a Kd of 226 ± 9.6 nM.
